The results in this text go back to paper PMC4560099.

The experiment has as its target 14-3-3ε (UniProt P62259). Kind of experiment: GST-14-3-3ε pull-down from neuronal lysate. The conditions noted are these: reference: wild-type CRTC1270.

Turning to “CRTC1 (CRTC1270 reporter) 1-270 (from UniProt Q68ED7) S64A”, where the note is “sites S64”, the “binding against the reference” value is “weaker”.
Take “CRTC1 (CRTC1270 reporter) 1-270 (from UniProt Q68ED7) S64A/S151A/S245A”: the “binding against the reference” value (sites S64,S151,S245) is on record as “lost”.
With “CRTC1 (CRTC1270 reporter) 1-270 (from UniProt Q68ED7) S151A”, the “binding against the reference” value (sites S151) is listed as “weaker”.
On to “CRTC1 (CRTC1270 reporter) 1-270 (from UniProt Q68ED7) S245A”, for which the “binding against the reference” value (sites S245) is recorded as “weaker”.
